Assay results from patent US20210388110A1 (published 2021).

Molecular target: T1, soluble human GPC3 (human, UniProt P51654 25-563, limits assumed)
T1 construct: soluble human GPC3 as analyte; also called glypican 3
Test: SPR (Biacore), soluble human GPC3

T1 sequence (P51654 other isoform, or with tags, fused parts or gaps limits assumed, form in doubt): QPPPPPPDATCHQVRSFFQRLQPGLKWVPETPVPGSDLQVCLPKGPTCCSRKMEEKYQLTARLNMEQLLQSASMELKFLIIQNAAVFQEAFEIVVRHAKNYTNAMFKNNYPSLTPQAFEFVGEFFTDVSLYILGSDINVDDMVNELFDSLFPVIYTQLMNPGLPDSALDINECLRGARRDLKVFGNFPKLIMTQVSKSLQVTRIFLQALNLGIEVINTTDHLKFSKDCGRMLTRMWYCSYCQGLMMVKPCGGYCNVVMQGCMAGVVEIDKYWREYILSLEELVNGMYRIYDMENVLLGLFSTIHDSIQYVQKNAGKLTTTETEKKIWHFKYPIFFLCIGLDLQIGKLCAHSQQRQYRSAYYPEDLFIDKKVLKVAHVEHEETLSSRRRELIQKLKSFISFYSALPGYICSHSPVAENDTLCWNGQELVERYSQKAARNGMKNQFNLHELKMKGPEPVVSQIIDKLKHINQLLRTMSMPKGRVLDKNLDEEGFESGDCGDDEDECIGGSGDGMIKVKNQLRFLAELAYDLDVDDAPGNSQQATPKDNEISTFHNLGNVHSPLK

| Binder | Kd |
| --- | --- |
| H0610-G1dh/none-Hi-Kn010G3/L0219-k0 (antibody, human IgG1, kappa, single-arm (one Fab)) heavy: not shown EPKSSDKTHTCPPCPAPELLGGPSVFLFPPKPKDTLMISRTPEVTCVVVDVSHEDPEVKFNWYVDGVEVHNAKTKPREEQYNSTYRVVSVLTVLHQDWLNGKEYKCKVSNKALPAPIEKTISKAKGQPREPQVCTLPPSRDELTKNQVSLWCLVKGFYPSDIAVEWESNGQPENNYKTTPPVLDSDGSFFLYSKLTVDKSRWQQGNVFSCSVMHEALHNRYTQKSLSLSP light: DIVMTQSPLSLPVTPGEPASISCRSSQSLVHSNRNTYIHWYQQKPGQAPRLLIYKVSNRFRGVPDRFSGSGSGTDFTLKISRVEAEDVGVYYCGQGTQVPYTFGQGTKLEIKRTVAAPSVFIFPPSDEQLKSGTASVVCLLNNFYPREAKVQWKVDNALQSGNSQESVTEQDSKDSTYSLSSTLTLSKADYEKHKVYACEVTHQGLSSPVTKSFNRGEC | 2.28 nM |
| H0610-G1dh/none-Hi-Kn010G3/L0227-k0 (antibody, human IgG1, kappa, single-arm (one Fab)) heavy: not shown EPKSSDKTHTCPPCPAPELLGGPSVFLFPPKPKDTLMISRTPEVTCVVVDVSHEDPEVKFNWYVDGVEVHNAKTKPREEQYNSTYRVVSVLTVLHQDWLNGKEYKCKVSNKALPAPIEKTISKAKGQPREPQVCTLPPSRDELTKNQVSLWCLVKGFYPSDIAVEWESNGQPENNYKTTPPVLDSDGSFFLYSKLTVDKSRWQQGNVFSCSVMHEALHNRYTQKSLSLSP light: DIVMTQSPLSLPVTPGEPASISCRSSQSPVHSNRNTYIHWYQQKPGQAPRLLIYKVSNRFSGVPDRFSGSGSGTDFTLKISRVEAEDVGVYYCLQGTQVPYTFGQGTKLEIKRTVAAPSVFIFPPSDEQLKSGTASVVCLLNNFYPREAKVQWKVDNALQSGNSQESVTEQDSKDSTYSLSSTLTLSKADYEKHKVYACEVTHQGLSSPVTKSFNRGEC | 0.408 nM |
| H0610-G1dh/none-Hi-Kn010G3/L0220-k0 (antibody, human IgG1, kappa, single-arm (one Fab)) heavy: not shown EPKSSDKTHTCPPCPAPELLGGPSVFLFPPKPKDTLMISRTPEVTCVVVDVSHEDPEVKFNWYVDGVEVHNAKTKPREEQYNSTYRVVSVLTVLHQDWLNGKEYKCKVSNKALPAPIEKTISKAKGQPREPQVCTLPPSRDELTKNQVSLWCLVKGFYPSDIAVEWESNGQPENNYKTTPPVLDSDGSFFLYSKLTVDKSRWQQGNVFSCSVMHEALHNRYTQKSLSLSP light: DIVMTQSPLSLPVTPGEPASISCRSSQPLVHSNRNTYLHWYQQKPGQAPRLLIYKVSNRFRGVPDRFSGSGSGTDFTLKISRVEAEDVGVYYCYQGTQVPYTFGQGTKLEIKRTVAAPSVFIFPPSDEQLKSGTASVVCLLNNFYPREAKVQWKVDNALQSGNSQESVTEQDSKDSTYSLSSTLTLSKADYEKHKVYACEVTHQGLSSPVTKSFNRGEC | 1.36 nM |
| H0610-G1dh/none-Hi-Kn010G3/L0229-k0 (antibody, human IgG1, kappa, single-arm (one Fab)) heavy: not shown EPKSSDKTHTCPPCPAPELLGGPSVFLFPPKPKDTLMISRTPEVTCVVVDVSHEDPEVKFNWYVDGVEVHNAKTKPREEQYNSTYRVVSVLTVLHQDWLNGKEYKCKVSNKALPAPIEKTISKAKGQPREPQVCTLPPSRDELTKNQVSLWCLVKGFYPSDIAVEWESNGQPENNYKTTPPVLDSDGSFFLYSKLTVDKSRWQQGNVFSCSVMHEALHNRYTQKSLSLSP light: DIVMTQSPLSLPVTPGEPASISCRSSQSPVHSNRNTYIHWYQQKPGQAPRLLIYKVSNRFSGVPDRFSGSGSGTDFTLKISRVEAEDVGVYYCYQSTQVPYTFGQGTKLEIKRTVAAPSVFIFPPSDEQLKSGTASVVCLLNNFYPREAKVQWKVDNALQSGNSQESVTEQDSKDSTYSLSSTLTLSKADYEKHKVYACEVTHQGLSSPVTKSFNRGEC | 1.2 nM |
| H0610-G1dh/none-Hi-Kn010G3/L0231-k0 (antibody, human IgG1, kappa, single-arm (one Fab)) heavy: not shown EPKSSDKTHTCPPCPAPELLGGPSVFLFPPKPKDTLMISRTPEVTCVVVDVSHEDPEVKFNWYVDGVEVHNAKTKPREEQYNSTYRVVSVLTVLHQDWLNGKEYKCKVSNKALPAPIEKTISKAKGQPREPQVCTLPPSRDELTKNQVSLWCLVKGFYPSDIAVEWESNGQPENNYKTTPPVLDSDGSFFLYSKLTVDKSRWQQGNVFSCSVMHEALHNRYTQKSLSLSP light: DIVMTQSPLSLPVTPGEPASISCRSSQSPVHSNRNTYIHWYQQKPGQAPRLLIYKVSNRFSGVPDRFSGSGSGTDFTLKISRVEAEDVGVYYCYQGTQWPYTFGQGTKLEIKRTVAAPSVFIFPPSDEQLKSGTASVVCLLNNFYPREAKVQWKVDNALQSGNSQESVTEQDSKDSTYSLSSTLTLSKADYEKHKVYACEVTHQGLSSPVTKSFNRGEC | 0.589 nM |
| H0610-G1dh/none-Hi-Kn010G3/L0230-k0 (antibody, human IgG1, kappa, single-arm (one Fab)) heavy: not shown EPKSSDKTHTCPPCPAPELLGGPSVFLFPPKPKDTLMISRTPEVTCVVVDVSHEDPEVKFNWYVDGVEVHNAKTKPREEQYNSTYRVVSVLTVLHQDWLNGKEYKCKVSNKALPAPIEKTISKAKGQPREPQVCTLPPSRDELTKNQVSLWCLVKGFYPSDIAVEWESNGQPENNYKTTPPVLDSDGSFFLYSKLTVDKSRWQQGNVFSCSVMHEALHNRYTQKSLSLSP light: DIVMTQSPLSLPVTPGEPASISCRSSQSPVHSNRNTYIHWYQQKPGQAPRLLIYKVSNRFSGVPDRFSGSGSGTDFTLKISRVEAEDVGVYYCYQTTQVPYTFGQGTKLEIKRTVAAPSVFIFPPSDEQLKSGTASVVCLLNNFYPREAKVQWKVDNALQSGNSQESVTEQDSKDSTYSLSSTLTLSKADYEKHKVYACEVTHQGLSSPVTKSFNRGEC | 4 nM |
| H0610-G1dh/none-Hi-Kn010G3/L0234-k0 (antibody, human IgG1, kappa, single-arm (one Fab)) heavy: not shown EPKSSDKTHTCPPCPAPELLGGPSVFLFPPKPKDTLMISRTPEVTCVVVDVSHEDPEVKFNWYVDGVEVHNAKTKPREEQYNSTYRVVSVLTVLHQDWLNGKEYKCKVSNKALPAPIEKTISKAKGQPREPQVCTLPPSRDELTKNQVSLWCLVKGFYPSDIAVEWESNGQPENNYKTTPPVLDSDGSFFLYSKLTVDKSRWQQGNVFSCSVMHEALHNRYTQKSLSLSP light: DIVMTQSPLSLPVTPGEPASISCRSSQEPVHSNRNTYLHWYQQKPGQAPRLLIYKVSNRFRGVPDRFSGSGSGTDFTLKISRVEAEDVGVYYCGQGTQVPYTFGQGTKLEIKRTVAAPSVFIFPPSDEQLKSGTASVVCLLNNFYPREAKVQWKVDNALQSGNSQESVTEQDSKDSTYSLSSTLTLSKADYEKHKVYACEVTHQGLSSPVTKSFNRGEC | 0.778 nM |
| H0610-G1dh/none-Hi-Kn010G3/L0223-k0 (antibody, human IgG1, kappa, single-arm (one Fab)) heavy: not shown EPKSSDKTHTCPPCPAPELLGGPSVFLFPPKPKDTLMISRTPEVTCVVVDVSHEDPEVKFNWYVDGVEVHNAKTKPREEQYNSTYRVVSVLTVLHQDWLNGKEYKCKVSNKALPAPIEKTISKAKGQPREPQVCTLPPSRDELTKNQVSLWCLVKGFYPSDIAVEWESNGQPENNYKTTPPVLDSDGSFFLYSKLTVDKSRWQQGNVFSCSVMHEALHNRYTQKSLSLSP light: DIVMTQSPLSLPVTPGEPASISCRSSQSPVHSNRNTYIHWYQQKPGQAPRLLIYKVSNRLSGVPDRFSGSGSGTDFTLKISRVEAEDVGVYYCYQGTQVPYTFGQGTKLEIKRTVAAPSVFIFPPSDEQLKSGTASVVCLLNNFYPREAKVQWKVDNALQSGNSQESVTEQDSKDSTYSLSSTLTLSKADYEKHKVYACEVTHQGLSSPVTKSFNRGEC | 0.475 nM |
| H0610-G1dh/none-Hi-Kn010G3/L0233-k0 (antibody, human IgG1, kappa, single-arm (one Fab)) heavy: not shown EPKSSDKTHTCPPCPAPELLGGPSVFLFPPKPKDTLMISRTPEVTCVVVDVSHEDPEVKFNWYVDGVEVHNAKTKPREEQYNSTYRVVSVLTVLHQDWLNGKEYKCKVSNKALPAPIEKTISKAKGQPREPQVCTLPPSRDELTKNQVSLWCLVKGFYPSDIAVEWESNGQPENNYKTTPPVLDSDGSFFLYSKLTVDKSRWQQGNVFSCSVMHEALHNRYTQKSLSLSP light: DIVMTQSPLSLPVTPGEPASISCRSSQELVHSNRNTYLHWYQQKPGQAPRLLIYKVSNRFSGVPDRFSGSGSGTDFTLKISRVEAEDVGVYYCGQGTQVPYTFGQGTKLEIKRTVAAPSVFIFPPSDEQLKSGTASVVCLLNNFYPREAKVQWKVDNALQSGNSQESVTEQDSKDSTYSLSSTLTLSKADYEKHKVYACEVTHQGLSSPVTKSFNRGEC | 3.55 nM |

Stronger by Kd, values ahead:

| Kd | Binder |
| --- | --- |
| 0.243 nM | H0610-G1dh/none-Hi-Kn010G3/L0224-k0 (antibody, human IgG1, kappa, single-arm (one Fab)) heavy: not shown EPKSSDKTHTCPPCPAPELLGGPSVFLFPPKPKDTLMISRTPEVTCVVVDVSHEDPEVKFNWYVDGVEVHNAKTKPREEQYNSTYRVVSVLTVLHQDWLNGKEYKCKVSNKALPAPIEKTISKAKGQPREPQVCTLPPSRDELTKNQVSLWCLVKGFYPSDIAVEWESNGQPENNYKTTPPVLDSDGSFFLYSKLTVDKSRWQQGNVFSCSVMHEALHNRYTQKSLSLSP light: DIVMTQSPLSLPVTPGEPASISCRSSQSPVHSNRNTYIHWYQQKPGQAPRLLIYKVSNRFPGVPDRFSGSGSGTDFTLKISRVEAEDVGVYYCYQGTQVPYTFGQGTKLEIKRTVAAPSVFIFPPSDEQLKSGTASVVCLLNNFYPREAKVQWKVDNALQSGNSQESVTEQDSKDSTYSLSSTLTLSKADYEKHKVYACEVTHQGLSSPVTKSFNRGEC |
| 0.202 nM | H0610-G1dh/none-Hi-Kn010G3/L0228-k0 (antibody, human IgG1, kappa, single-arm (one Fab)) heavy: not shown EPKSSDKTHTCPPCPAPELLGGPSVFLFPPKPKDTLMISRTPEVTCVVVDVSHEDPEVKFNWYVDGVEVHNAKTKPREEQYNSTYRVVSVLTVLHQDWLNGKEYKCKVSNKALPAPIEKTISKAKGQPREPQVCTLPPSRDELTKNQVSLWCLVKGFYPSDIAVEWESNGQPENNYKTTPPVLDSDGSFFLYSKLTVDKSRWQQGNVFSCSVMHEALHNRYTQKSLSLSP light: DIVMTQSPLSLPVTPGEPASISCRSSQSPVHSNRNTYIHWYQQKPGQAPRLLIYKVSNRFSGVPDRFSGSGSGTDFTLKISRVEAEDVGVYYCVQGTQVPYTFGQGTKLEIKRTVAAPSVFIFPPSDEQLKSGTASVVCLLNNFYPREAKVQWKVDNALQSGNSQESVTEQDSKDSTYSLSSTLTLSKADYEKHKVYACEVTHQGLSSPVTKSFNRGEC |
| 0.093 nM | H0610-G1dh/none-Hi-Kn010G3/L0226-k0 (antibody, human IgG1, kappa, single-arm (one Fab)) heavy: not shown EPKSSDKTHTCPPCPAPELLGGPSVFLFPPKPKDTLMISRTPEVTCVVVDVSHEDPEVKFNWYVDGVEVHNAKTKPREEQYNSTYRVVSVLTVLHQDWLNGKEYKCKVSNKALPAPIEKTISKAKGQPREPQVCTLPPSRDELTKNQVSLWCLVKGFYPSDIAVEWESNGQPENNYKTTPPVLDSDGSFFLYSKLTVDKSRWQQGNVFSCSVMHEALHNRYTQKSLSLSP light: DIVMTQSPLSLPVTPGEPASISCRSSQSPVHSNRNTYIHWYQQKPGQAPRLLIYKVSNRFSGVPDRFSGSGSGTDFTLKISRVEAEDVGVYYCIQGTQVPYTFGQGTKLEIKRTVAAPSVFIFPPSDEQLKSGTASVVCLLNNFYPREAKVQWKVDNALQSGNSQESVTEQDSKDSTYSLSSTLTLSKADYEKHKVYACEVTHQGLSSPVTKSFNRGEC |
| 0.00014 nM | H0610-G1dh/none-Hi-Kn010G3/L0222-k0 (antibody, human IgG1, kappa, single-arm (one Fab)) heavy: not shown EPKSSDKTHTCPPCPAPELLGGPSVFLFPPKPKDTLMISRTPEVTCVVVDVSHEDPEVKFNWYVDGVEVHNAKTKPREEQYNSTYRVVSVLTVLHQDWLNGKEYKCKVSNKALPAPIEKTISKAKGQPREPQVCTLPPSRDELTKNQVSLWCLVKGFYPSDIAVEWESNGQPENNYKTTPPVLDSDGSFFLYSKLTVDKSRWQQGNVFSCSVMHEALHNRYTQKSLSLSP light: DIVMTQSPLSLPVTPGEPASISCRSSQSPVHSNRNTYIQWYQQKPGQAPRLLIYKVSNRFSGVPDRFSGSGSGTDFTLKISRVEAEDVGVYYCYQGTQVPYTFGQGTKLEIKRTVAAPSVFIFPPSDEQLKSGTASVVCLLNNFYPREAKVQWKVDNALQSGNSQESVTEQDSKDSTYSLSSTLTLSKADYEKHKVYACEVTHQGLSSPVTKSFNRGEC |
